The source of these data is patent US20050209305A1.

In the experiment the target is Candida albicans cell surface hemoglobin receptor (Candida albicans). The experiment in a line: cell-based or functional assay.

Take hemoglobin: the Renilla luciferase activity driven by the CaHMX1 promoter in C. albicans strain CAMP Ki-29, iron-sufficient medium, within 2.5 min of Hb addition is above 10 fold.
